Data published in patent US20250282881A1 (SHANGHAI EPIMAB BIOTHERAPEUTICS, published 2025).

How the values were obtained:
[1] = molecular target: T1, human OX40 on cells (CHO-K1-hOX40, CHO-OX40, Jurkat-OX40 reporter cells) (human, UniProt P43489 29-277); test: FACS on human OX40 transfected CHO cells
T1 construct: also called human OX40-transfected CHO cell; CD134
T1 sequence: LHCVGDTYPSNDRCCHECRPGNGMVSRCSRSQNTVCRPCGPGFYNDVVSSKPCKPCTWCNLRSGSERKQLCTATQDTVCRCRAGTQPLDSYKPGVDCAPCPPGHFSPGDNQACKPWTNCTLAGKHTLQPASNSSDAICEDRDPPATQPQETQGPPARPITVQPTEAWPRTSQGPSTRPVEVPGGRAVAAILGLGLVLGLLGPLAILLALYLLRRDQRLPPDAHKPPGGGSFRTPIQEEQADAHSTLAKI
Method: Cell binding affinity of PD-L1/OX40 antibodies were measured against CHO (ATCC, #CCL-61) overexpressing human PD-L1 (CHO-PD-L1) and CHO overexpressing OX40 (CHO-OX40), respectively. Briefly, 5×10⁵ cells were seeded into each well of a 96-well plate (Corning, #3799). Cells were centrifuged at 400 g for 5 minutes and supernatants were discarded. For each well, 100 μl of 3× serial dilution of antibodies starting from 100 nM were then added and mixed with the cells. After 60 minutes of 4° C. incubation, plates were washed several times to remove excess antibodies. […] After another round of centrifugation and washing, cells were resuspended in FACS buffer for reading on a CytoFLEX Flow Cytometer (Beckman Coulter). Median Fluorescence Intensity (MFI) readouts were plotted against antibody concentration and analyzed with GraphPad Prism 8.0.

[2] = molecular target: T2, recombinant human OX40/His fusion protein (Novoprotein, CB17) (human, UniProt P43489 29-216); test: BLI (Octet RED96), antibody on AHC sensor, OX40/His as analyte, test group 4
T2 construct: Bought protein
T2 sequence: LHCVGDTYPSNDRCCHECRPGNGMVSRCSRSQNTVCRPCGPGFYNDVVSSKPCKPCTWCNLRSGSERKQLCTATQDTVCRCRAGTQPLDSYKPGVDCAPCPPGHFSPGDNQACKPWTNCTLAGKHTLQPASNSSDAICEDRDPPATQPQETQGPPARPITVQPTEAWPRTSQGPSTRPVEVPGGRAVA
Method: All 17 antibodies in Table 4 were expressed by transient transfection of HEK293 cell, purified by Protein A chromatography, and assayed for and ranked by dissociation rate constant (koff). Briefly, antibodies binding affinities and kinetics were characterized by Octet® RED96 biolayer interferometry (Pall FortéBio LLC). Antibodies were captured by Anti-hIgG Fc Capture (AHC) Biosensors (Pall) at a concentration of 100 nM for 120 seconds. After that, sensors were dipped into running buffer (1× pH 7.2 PBS, 0.05% Tween 20, 0.1% BSA) for 60 seconds to check the baseline, then dipped into recombinant human OX40/His fusion protein (Novoprotein, CB17) at assigned concentration for 200 seconds to measure binding, followed by dipped into running buffer for 600 seconds for dissociation. The assay was conducted in four test groups (as listed in Table 5) all containing the EM1007-044c chimeric antibody as the basis for normalization. The association and dissociation curves were fitted to a 1:1 Langmuir binding model using ForteBio Data Analysis software (Pall) to obtain the off-rate constants as shown in Table 5 below. The off-rate of each antibody was compared to that of the EM1007-mAb044c chimeric antibody in the same test group obtained in parallel to produce the corresponding off-rate ratio, serving as a normalized index. […]

[3] = molecular target: T3, ΔCRD1-3 (human, UniProt P43489); test: ELISA, OX40 variant coated at 1 µg/ml, HRP-labeled secondary antibody, OD 450 nm
T3 construct: extracellular domain without CRD1, CRD2 and CRD3 (CRD4 left); also called truncated OX40 variant lacking CRD1, CRD2 and CRD3
T3 sequence (truncated extracellular domain, looked up): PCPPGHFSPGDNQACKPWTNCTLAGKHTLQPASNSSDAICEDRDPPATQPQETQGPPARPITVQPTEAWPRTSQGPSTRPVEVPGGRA
From the text: The 4 cysteine rich domains (CRD) from OX40 extracellular domain were identified from UniProt (Identifier: P43489), and full length of extracellular OX40 (CRD1-4) and truncated OX40 variants ΔCRD1 (lacking CRD1), ΔCRD1-2 (lacking CRD1 and CRD2), ΔCRD1-3 (lacking CRD1, CRD2 and CRD3), mCRD1 (CRD1-4 with CRD1 domain therein replaced by murine CRD1), mCRD2 (CRD1-4 with CRD2 domain therein replaced by murine CRD2), mCRD3 (CRD1-4 with CRD3 domain therein replaced by murine CRD3), and mCRD4 (CRD1-4 with CRD4 domain therein replaced by murine CRD4) were synthesized by Biointron. The binding of HuEM1007-044-16, OX40-Tab1 (WO2015153513), OX40-Tab2 (WO2020151761) to OX40 or OX40 truncated proteins were analyzed using ELISA to identify the pertinent binding epitope. Briefly, OX40 variants were each coated at 1 μg/ml onto a 96 well plate (Corning, #3361) which was incubated overnight at 4° C., washed with PBS containing 0.05% Tween 20, blocked with blocking buffer (PBS containing 0.05% Tween 20 and 2% BSA) at 37° C. for 2 hours. On the coated and blocked plate, serially diluted antibodies were added and incubated at 37° C. for 1 hour, washed for 3 times, then added HRP-labeled secondary antibody. Tetramethylbenzidine (TMB) chromogenic solution was added for color development for 5 minutes then the reaction was quench with 1M HCl. Absorbance at 450 nm (OD450) was measured on a microplate reader.

- EC50 [1]: 1.8 nM
- Normalized Index (off-rate ratio to EM1007-mAb044c) [2]: 126%
- koff [2]: 0.000352 s⁻¹
- binding result [3]: no binding (tested: about 25 nM)
B1: HuEM1007-044-16 (antibody, human IgG1, kappa, L234A L235A, V domains shown)
VH: EVQLQQSGAEVKKPGSSVKVSCKASGHAFSSSWMNWVKQRPGKGLEWIGRIYPGDEITNYNAKFKDKATLTADKSTSTAYMELSSLRSEDTAVYYCARDLLMPYWGQGTLVTVSS
VL: DIVMTQTPLSLPVTPGEPASISCRSSKSLLYSNAITYLYWYLQKPGQSPQLLIYQMSNLAPGVPDRFSSSGSGTDFTLKISRVEAEDVGVYYCAQNLELPFTFGQGTKLEIKR
notes: Humanized anti-OX40, human IgG1 LALA / kappa; parental antibody of FIT1014-20a; also called HuEM1007-44-16; parental OX40 antibody
